Reference: patent US20220282255A1

Target: Recombinant Human TGF-β1, manufactured by Peprotech (human) (UniProt P01137)
Assay: cell-based or functional assay

Sequence of Recombinant Human TGF-β1, manufactured by Peprotech (human) (P01137 279-390 limits assumed): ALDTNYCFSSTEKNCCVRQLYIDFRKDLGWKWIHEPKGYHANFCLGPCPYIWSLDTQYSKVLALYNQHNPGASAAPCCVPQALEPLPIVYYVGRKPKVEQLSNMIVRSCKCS

## known TGF-β antibody (R&D, MAB1835)
  cell (luciferase assay inhibitory rate (%)): 100%
